From the supplement of paper PMC10126150
± gives the standard deviation of the averaged measurements.

Tested on: ATP
Test: switch fluorescence ratio, 500 uM ATP over buffer (Cy3 cluster intensity, sum of 5 cycles each) (fold (ratio)); higher = stronger signal-on switching upon ATP binding; sequences stand for … in TCGTCGGCAGCGTCAGATGTGTATAAGAGACAGTTTTTTTTTTTTTTTTTTTTTTTTT…TC
Settings: aptamer strand: ATP DNA aptamer (quencher-CACCTGGGGGAGTATTGCGGAGGAAGG + anchor), 100 nM annealed; ATP concentration: 500 uM
Outline: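 Between each of five buffer/ATP cycles, the flow-cell was stripped with NaOH and re-annealed. Each cycle imaged Cy3-labelled switching-strand clusters, annealed to 100 nM quencher-labelled ATP aptamer on a modified Illumina MiSeq flow-cell, first in selection buffer and then after 15 min with 500 uM ATP at 22 °C. The fluorescence ratio is summed target-cycle over summed buffer-cycle Cy3 intensity per cluster, averaged per switch-domain sequence, with clusters outside 100-1000 RFU excluded.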
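Also: ATP exposure 15 min at 22 °C before imaging.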

| Sequence | switch fluorescence ratio |
| --- | --- |
| AGGGAGTTGC | 1.03 ± 0.038 |
| AGGGATACCG | 1.01 ± 0.066 |
| AGGGATCGTC | 0.987 ± 0.014 |
| AGGGATGGGT | 0.976 ± 0.0026 |
| AGGGATTAA | 0.99 ± 0.054 |
| AGGGATTCAT | 1.02 ± 0.032 |
| AGGGATTGAA | 0.9875 ± 0.0022 |
| AGGGCAAGCG | 0.938 ± 0.041 |
| AGGGCAGGGT | 0.975 ± 0.018 |
| AGGGCCAAGT | 0.997 ± 0.011 |
| AGGGCGGGTA | 1.01 ± 0.014 |
| AGGGCTCCTG | 1.0172 ± 0.00034 |
| AGGGCTGTTA | 0.998 ± 0.033 |
| AGGGCTTTCT | 0.97 ± 0.023 |
| AGGGCTTTGT | 1 ± 0.014 |
| AGGGGAAAGC | 1.01 ± 0.027 |
| AGGGGAAAGG | 0.984 ± 0.014 |
| AGGGGAAGCC | 1.02 ± 0.066 |
| AGGGGAAGTG | 0.955 ± 0.07 |
| AGGGGACTTT | 0.978 ± 0.013 |
| AGGGGAGAAC | 0.9758 ± 0.0086 |
| AGGGGAGGTG | 1.09 ± 0.05 |
| AGGGGAGTAT | 1.45 ± 0.66 |

| Sequence | switch fluorescence ratio |
| --- | --- |
| AGGGGAGTGT | 0.988 ± 0.029 |
| AGGGGATCGC | 0.996 ± 0.034 |
| AGGGGATTGG | 0.991 ± 0.015 |
| AGGGGCACGG | 1.02 ± 0.0093 |
| AGGGGCGGCG | 1.01 ± 0.061 |
| AGGGGCGGGC | 0.884 ± 0.13 |
| AGGGGCGGGG | 0.995 ± 0.029 |
| AGGGGCGTAG | 1 ± 0.025 |
| AGGGGGAATG | 1 ± 0.044 |
| AGGGGGACTG | 0.9635 ± 0.0022 |
| AGGGGGAGAG | 0.969 ± 0.013 |
| AGGGGGAGCA | 0.9697 ± 0.0045 |
| AGGGGGATCA | 1.011 ± 0.0061 |
| AGGGGGATCG | 0.9794 ± 0.0018 |
| AGGGGGCAAA | 1.02 ± 0.045 |
| AGGGGGCAGA | 1.03 ± 0.05 |
| AGGGGGCAGC | 1.01 ± 0.015 |
| AGGGGGCCCG | 1.009 ± 0.005 |
| AGGGGGCGCG | 1.01 ± 0.048 |
| AGGGGGCTGT | 0.994 ± 0.03 |
| AGGGGGGACT | 0.993 ± 0.011 |
| AGGGGGGAGG | 0.997 ± 0.026 |
| AGGGGGGCGA | 1.01 ± 0.029 |

| Sequence | switch fluorescence ratio |
| --- | --- |
| AGGGGGGCGT | 1.01 ± 0.016 |
| AGGGGGGCTG | 0.975 ± 0.045 |
| AGGGGGGGG | 1.03 ± 0.085 |
| AGGGGGGTCA | 0.976 ± 0.032 |
| AGGGGGGTTG | 1 ± 0.032 |
| AGGGGGTAGA | 1.05 ± 0.027 |
| AGGGGGTATC | 0.988 ± 0.023 |
| AGGGGGTCAC | 1 ± 0.026 |
| AGGGGGTCCG | 1.03 ± 0.049 |
| AGGGGGTCGA | 1.01 ± 0.035 |
| AGGGGGTGTG | 0.989 ± 0.043 |
| AGGGGGTTTG | 1.01 ± 0.033 |
| AGGGGTAAAT | 1.02 ± 0.073 |
| AGGGGTAATA | 0.9817 ± 0.006 |
| AGGGGTAGCG | 0.9539 ± 0.0073 |
| AGGGGTAGGG | 1.01 ± 0.027 |
| AGGGGTATCG | 1 ± 0.029 |
| AGGGGTATCT | 0.9739 ± 0.007 |
| AGGGGTGCGC | 0.9894 ± 0.0055 |
| AGGGGTGCGG | 1.04 ± 0.08 |
| AGGGGTGGAG | 1.02 ± 0.006 |
| AGGGGTGTTT | 0.999 ± 0.039 |
| AGGGGTTAGC | 0.974 ± 0.05 |

| Sequence | switch fluorescence ratio |
| --- | --- |
| AGGGTAAATT | 1.03 ± 0.053 |
| AGGGTAAGTC | 0.972 ± 0.043 |
| AGGGTACAGT | 1.04 ± 0.055 |
| AGGGTAGGGG | 0.994 ± 0.03 |
| AGGGTAGGTG | 1.09 ± 0.012 |
| AGGGTATGTT | 0.9682 ± 0.004 |
| AGGGTATTCA | 1.01 ± 0.02 |
| AGGGTCAGGG | 1.01 ± 0.04 |
| AGGGTCGGAA | 1.02 ± 0.018 |
| AGGGTCTTGC | 0.998 ± 0.014 |
| AGGGTGCCGT | 0.988 ± 0.08 |
| AGGGTGCTCC | 1.23 ± 0.33 |
| AGGGTGCTCG | 1.02 ± 0.047 |
| AGGGTGGGGG | 1.03 ± 0.036 |
| AGGGTGGGTA | 0.9768 ± 0.0053 |
| AGGGTGGTGT | 0.976 ± 0.039 |
| AGGGTGGTTT | 0.997 ± 0.02 |
| AGGGTGTGCC | 1.01 ± 0.018 |
| AGGGTTAACA | 1.01 ± 0.016 |
| AGGGTTAGCA | 1.02 ± 0.021 |
| AGGGTTATCG | 1.02 ± 0.018 |
| AGGGTTCTGG | 0.971 ± 0.028 |
| AGGGTTGCAT | 0.9863 ± 0.0025 |

| Sequence | switch fluorescence ratio |
| --- | --- |
| AGGGTTGGCA | 0.998 ± 0.029 |
| AGGGTTGGGT | 1.01 ± 0.03 |
| AGGGTTTGGG | 1.01 ± 0.038 |
| AGGTAAACGT | 1.05 ± 0.083 |
| AGGTAAATTA | 0.9982 ± 0.0076 |
| AGGTAACTGT | 1.01 ± 0.051 |
| AGGTAAGCTA | 1.025 ± 0.005 |
| AGGTAAGGGT | 0.974 ± 0.035 |
| AGGTAATAGC | 1.05 ± 0.0078 |
| AGGTACCGTT | 1.033 ± 0.0017 |
| AGGTACGTGG | 0.996 ± 0.059 |
| AGGTAGAGAG | 0.992 ± 0.038 |
| AGGTAGCACA | 1.056 ± 0.0036 |
| AGGTAGGCGT | 0.97539 ± 0.00061 |
| AGGTAGTTTA | 1.02 ± 0.045 |
| AGGTATGCGT | 0.985 ± 0.041 |
| AGGTATTGGA | 0.985 ± 0.015 |
| AGGTATTTG | 0.986 ± 0.013 |
| AGGTCATGTA | 1.01 ± 0.026 |
| AGGTCCGACG | 0.967 ± 0.041 |
| AGGTCGAATT | 1 ± 0.051 |
| AGGTCGGGAG | 0.9895 ± 0.0072 |
| AGGTCGTCGT | 0.955 ± 0.017 |

| Sequence | switch fluorescence ratio |
| --- | --- |
| AGGTCGTGGG | 0.996 ± 0.016 |
| AGGTCTATGC | 0.975 ± 0.016 |
| AGGTCTATTG | 1.06 ± 0.09 |
| AGGTCTGCGG | 0.967 ± 0.025 |
| AGGTCTTTCG | 1.002 ± 0.003 |
| AGGTGACGGT | 0.9809 ± 0.0085 |
| AGGTGAGGCA | 1.05 ± 0.097 |
| AGGTGCCGTG | 1.02 ± 0.083 |
| AGGTGCTGGG | 1.03 ± 0.013 |
| AGGTGGGGAT | 0.994 ± 0.021 |
| AGGTGGTGAC | 0.979 ± 0.018 |
| AGGTGGTGCT | 0.991 ± 0.056 |
| AGGTGGTGTG | 0.984 ± 0.015 |
| AGGTGTAACA | 1.15 ± 0.2 |
| AGGTGTGAGC | 1.03 ± 0.012 |
| AGGTTAGGGT | 0.969 ± 0.015 |
| AGGTTATATT | 1.01 ± 0.024 |
| AGGTTCAAAG | 0.959 ± 0.037 |
| AGGTTCATCT | 1.011 ± 0.0057 |
| AGGTTGAAGG | 0.997 ± 0.016 |
| AGGTTGAGAT | 1.04 ± 0.041 |
| AGGTTGAGGA | 0.964 ± 0.033 |
| AGGTTGCCGG | 1.04 ± 0.046 |

| Sequence | switch fluorescence ratio |
| --- | --- |
| AGGTTGGGGC | 1.01 ± 0.052 |
| AGGTTGTAGC | 0.998 ± 0.02 |
| AGGTTGTCGT | 0.997 ± 0.035 |
| AGGTTGTGAG | 0.98 ± 0.034 |
| AGGTTGTTCT | 0.967 ± 0.035 |
| AGGTTTATTT | 1.02 ± 0.018 |
| AGGTTTCCGT | 1.02 ± 0.032 |
| AGGTTTGACA | 1.027 ± 0.0067 |
| AGGTTTGCGT | 1.01 ± 0.021 |
| AGGTTTTCAG | 0.983 ± 0.045 |
| AGGTTTTCGT | 1.028 ± 0.0039 |
| AGGTTTTGGG | 0.979 ± 0.022 |
| AGGTTTTGTG | 1.02 ± 0.044 |
| AGGTTTTTGA | 0.991 ± 0.04 |
| AGTAAAGGGT | 0.999 ± 0.012 |
| AGTAAATTAT | 1.03 ± 0.027 |
| AGTAACCGGC | 0.967 ± 0.12 |
| AGTAACCTTG | 1.02 ± 0.022 |
| AGTAACGCTT | 1.008 ± 0.01 |
